The test system of one series is MCF7. Nature of the series: percentage of EdU-negative (G0-arrested) nuclei per well, 72 h; higher = more G0 arrest. The note with it: reference: sequence is the full UniProt precursor, the tested protein was the secreted form or ectodomain.
Another series deals with hTERT-HMEC. The description is as above. The note with it: reference: sequence is the full UniProt precursor, the tested protein was the secreted form or ectodomain.
[1] abbreviates: protein concentration 0.0225 µM.
The mark [2] stands for this setting: protein concentration 0.03125 µM.
Where [3] appears, read: protein concentration 0.3125 µM.

± gives the standard deviation of the averaged measurements.
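Also: secreted proteins added to cultured cells, EdU pulse at the end, nuclei found by Hoechst imaging, EdU status from nuclear versus surrounding ring intensity ratio, PBS as neutral control.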

For “MVLCWLLLLVMALPPGTTGVKDCVFCELTDSMQCPGTYMHCGDDEDCFTGHGVAPGTGPVINKGCLRATSCGLEEPVSYRGVTYSLTTNCCTGRLCNRAPSSQTVGATTSLALGLGMLLPPRLL [Q8TDM5]”, the “percentage of EdU-negative” value in the series on MCF7 (setting [1]) is 27.6 ± 0.57%; in the series on MCF7 (protein concentration 0.225 µM), 25.47 ± 0.088%; with hTERT-HMEC (setting [1]), 4.81 ± 0.12%; with hTERT-HMEC (protein concentration 0.225 µM), 5.43 ± 0.73%.
Take “MQRLRWLRDWKSSGRGLTAAKEPGARSSPLQAMRILQLILLALATGLVGGETRIIKGFECKPHSQPWQAALFEKTRLLCGATLIAPRWLLTAAHCLKPRYIVHLGQHNLQKEEGCEQTRTATESFPHPGFNNSLPNKDHRNDIMLVKMASPVSITWAVRPLTLSSRCVTAGTSCLISGWGSTSSPQLRLPHTLRCANITIIEHQKCENAYPGNITDTMVCASVQEGGKDSCQGDSGGPLVCNQSLQGIISWGQDPCAITRKPGVYTKVCKYVDWIQETMKNN [Q9UBX7]”: the “percentage of EdU-negative” value came to 27.509 ± 0.019% with MCF7 (setting [1]), 25.5 ± 1.5% in the series on MCF7 (protein concentration 0.225 µM), 5.31 ± 0.64% in the series with hTERT-HMEC (setting [1]) and 6.15 ± 0.74% with hTERT-HMEC (protein concentration 0.225 µM).
For “MSDLGAVISLLLWGRQLFALYSGNDVTDISDDRFPKPPEIANGYVEHLFRYQCKNYYRLRTEGDGVYTLNDKKQWINKAVGDKLPECEAVCGKPKNPANPVQRILGGHLDAKGSFPWQAKMVSHHNLTTGATLINEQWLLTTAKNLFLNHSENATAKDIAPTLTLYVGKKQLVEIEKVVLHPNYHQVDIGLIKLKQKVLVNERVMPICLPSKNYAEVGRVGYVSGWGQSDNFKLTDHLKYVMLPVADQYDCITHYEGSTCPKWKAPKSPVGVQPILNEHTFCVGMSKYQEDTCYGDAGSAFAVHDLEEDTWYAAGILSFDKSCAVAEYGVYVKVTSIQHWVQKTIAEN”, the “percentage of EdU-negative” value with MCF7 (protein concentration 0.029 µM) is 26.82 ± 0.23%; with MCF7 (protein concentration 0.29 µM) it was 26.1 ± 1.1%; with hTERT-HMEC (protein concentration 0.029 µM) it was 4.84 ± 0.049%; in the series on hTERT-HMEC (protein concentration 0.29 µM), 4.84 ± 0.17%.
For the sequence “MAQYLSTLLLLLATLAVALAWSPKEEDRIIPGGIYNADLNDEWVQRALHFAISEYNKATKDDYYRRPLRVLRARQQTVGGVNYFFDVEVGRTICTKSQPNLDTCAFHEQPELQKKQLCSFEIYEVPWENRRSLVKSRCQES”, the “percentage of EdU-negative” value amounted to 25.5 ± 1.2% in the series on MCF7 (setting [1]), 25 ± 0.45% with MCF7 (protein concentration 0.225 µM), 5.26 ± 0.4% in the series with hTERT-HMEC (setting [1]) and 5.09 ± 0.29% with hTERT-HMEC (protein concentration 0.225 µM).
For the sequence “MCVGARRLGRGPCAALLLLGLGLSTVTGLHCVGDTYPSNDRCCHECRPGNGMVSRCSRSQNTVCRPCGPGFYNDVVSSKPCKPCTWCNLRSGSERKQLCTATQDTVCRCRAGTQPLDSYKPGVDCAPCPPGHFSPGDNQACKPWTNCTLAGKHTLQPASNSSDAICEDRDPPATQPQETQGPPARPITVQPTEAWPRTSQGPSTRPVEVPGGRAVAAILGLGLVLGLLGPLAILLALYLLRRDQRLPPDAHKPPGGGSFRTPIQEEQADAHSTLAKI”, the “percentage of EdU-negative” value in the series with MCF7 (setting [1]) was 24.5 ± 3.6%; in the series with MCF7 (protein concentration 0.225 µM) it was 26 ± 1.2%; in the series with hTERT-HMEC (setting [1]), 5.89 ± 1%; with hTERT-HMEC (protein concentration 0.225 µM), 6.68 ± 0.33%.
Consider “MVWKVAVFLSVALGIGAVPIDDPEDGGKHWVVIVAGSNGWYNYRHQADACHAYQIIHRNGIPDEQIVVMMYDDIAYSEDNPTPGIVINRPNGTDVYQGVPKDYTGEDVTPQNFLAVLRGDAEAVKGIGSGKVLKSGPQDHVFIYFTDHGSTGILVFPNEDLHVKDLNETIHYMYKHKMYRKMVFYIEACESGSMMNHLPDNINVYATTAANPRESSYACYYDEKRSTYLGDWYSVNWMEDSDVEDLTKETLHKQYHLVKSHTNTSHVMQYGNKTISTMKVMQFQGMKRKASSPVPLPPVTHLDLTPSPDVPLTIMKRKLMNTNDLEESRQLTEEIQRHLDARHLIEKSVRKIVSLLAASEAEVEQLLSERAPLTGHSCYPEALLHFRTHCFNWHSPTYEYALRHLYVLVNLCEKPYPLHRIKLSMDHVCLGHY”, for which the “percentage of EdU-negative” value with MCF7 (setting [2]) is 26.412 ± 0.015%; in the series on MCF7 (setting [3]) it was 26 ± 1.2%; in the series with hTERT-HMEC (setting [2]), 5.13 ± 0.28%; in the series on hTERT-HMEC (setting [3]), 5.28 ± 0.11%.
As for “MKALIAALLLITLQYSCAVSPTDCSAVEPEAEKALDLINKRRRDGYLFQLLRIADAHLDRVENTTVYYLVLDVQESDCSVLSRKYWNDCEPPDSRRPSEIVIGQCKVIATRHSHESQDLRVIDFNCTTSSVSSALANTKDSPVLIDFFEDTERYRKQANKALEKYKEENDDFASFRVDRIERVARVRGGEGTGYFVDFSVRNCPRHHFPRHPNVFGFCRADLFYDVEALDLESPKNLVINCEVFDPQEHENINGVPPHLGHPFHWGGHERSSTTKPPFKPHGSRDHHHPHKPHEHGPPPPPDERDHSHGPPLPQGPPPLLPMSCSSCQHATFGTNGAQRHSHNNNSSDLHPHKHHSHEQHPHGHHPHAHHPHEHDTHRQHPHGHHPHGHHPHGHHPHGHHPHGHHPHCHDFQDYGPCDPPPHNQGHCCHGHGPPPGHLRRRGPGKGPRPFHCRQIGSVYRLPPLRKGEVLPLPEANFPSFPLPHHKHPLKPDNQPFPQSVSESCPGKFKSGFPQVSMFFTHTFPK”, the “percentage of EdU-negative” value stood at 26 ± 1.3% in the series on MCF7 (setting [2]), 25.5 ± 0.58% with MCF7 (setting [3]), 4.57 ± 0.34% in the series with hTERT-HMEC (setting [2]) and 4.52 ± 0.3% in the series on hTERT-HMEC (setting [3]).
On the same counts, the results for “MSSAAGFCASRPGLLFLGLLLLPLVVAFASAEAEEDGDLQCLCVKTTSQVRPRHITSLEVIKAGPHCPTAQLIATLKNGRKICLDLQAPLYKKIIKKLLES” are 23.9 ± 0.55%, 26.1 ± 3.4%, 5.71 ± 0.5% and 5.011 ± 0.0019%.

Values taken from the supplement of paper PMC11316812.
